Assay [1] has as its target E. coli β-clamp, wild type, His-tagged (UniProt P0A988). The assay can be described thus: SPR. The settings on record: peak response at the end of the last (highest) peptide injection, about 1130 s; concentrations not given; parent: est. 140; read off a plot.
Assay [2] has as its target β-clamp (Escherichia coli) (UniProt P0A988). The following applies: cited from earlier work.

On to “Octamer APIM peptide RWLVK (Ac-MDRWLVKW) MDRALVKW (mutated APIM; W to A at peptide position 4 of MDRWLVKW)”, for which the response in assay [1] came to 8 RU. On to Pol III alpha C-terminal peptide, for which the dissociation constant Kd (usually the concentration at which binding is half-saturated) in assay [2] is 2000 nM.

The values above are taken from article PMC7261172, “Peptides containing the PCNA interacting motif APIM bind to the β-clamp and inhibit bacterial growth and mutagenesis” (Nucleic Acids Research, 2020).
